We go through 10 molecules from patent US20140296500, “Methods and Compositions of Nucleic Acid Ligands for Detection of Clinical Analytes Related to Human Health” (OTC BIOTECHNOLOGIES, LLC, published 2014).

The target of series [1] is T1, CTx peptide (C-telopeptide of human type I bone collagen, 26 AA …) (Homo sapiens, UniProt P02452 P02452:1193-1218). The experiment in a line: FRET beacon; LOD 1 ng/ml; 0.5 M NaCl, 10 mM Tris-HCl, 1 mM MgCl2, pH 7.5-7.6, RT. The conditions noted are these: label: 5'-TYE665, 3'-Iowa Black RQ. As to the method:
Generally, the aptamer beacons or competitive FRET-aptamer complexes are then diluted to a final concentration of 1-5 μg/ml in 1×BB and equally dispensed to polystyrene or methacrylate cuvettes in which 1 ml of unlabeled target at various concentrations in 1×BB, PBS or diluted blood, plasma, serum, saliva, aspirate or urine has been added already. Cuvettes are gently mixed for 15 to 20 minutes at RT prior to reading their fluorescence in the homogeneous beacon or competitive-displacement FRET assay formats using a spectrofluorometer having gratings to vary the excitation wavelength and emission scanning ability or a stationary, handheld or otherwise portable fluorometer having a more restricted or fixed excitation and emission optical filter set with a range of wavelengths for excitation and emission.
FIGS. 3A-3F show how each of the aptamer beacons derived and defined from FIG. 2 behaved as a function of decreasing CTx peptide concentration (serial two-fold dilutions beginning with 100 micrograms per ml and ending with zero CTx peptide) in 1× binding buffer (1×BB; 0.5 M NaCl, 10 mM Tris-HCl, pH 7.5-7.6, 1 mM MgCl₂). In the figures “h” means hour or O'clock so that 2 h refers to the 2 O'clock loop from FIG. 2, while F means forward-primed and R means reverse-primed by reference to FIG. 2 as well. […]

Series [2] addresses Bovine serum albumin (BSA) (Bos taurus, UniProt P02769 P02769:25-607). Briefly: FRET beacon; unexpected cross-reactivity with BSA. The conditions noted are these: label: 5'-TYE665, 3'-Iowa Black RQ.
For series [3], the target named is T2, CTx 8-AA peptide (EKAHDGGR) (Homo sapiens, UniProt P02452 P02452:1207-1214).
T2 chain: EKAHDGGR
Briefly: FRET beacon specificity; no response with 8-AA segment. The settings on record: label: 5'-TYE665, 3'-Iowa Black RQ.

In series [4] the target is T3, Recombinant human growth hormone (r-hGH) (Homo sapiens, UniProt P01241 P01241:27-217). The experiment in a line: ELONA; binds r-hGH better than natural hGH. The settings on record: tags: >95% pure research grade; label: 5'-biotin. As for the experimental part: FIGS. 16A-16D show four more examples of aptamers (from the SEQ ID NOs 325-526) that bind recombinant human growth hormone (“r-hGH”) better than the natural form of hGH or somatotropin to help discriminate the artificial form in potential drug or doping tests for atheletes and growth-challenged children. The ELISA-like assays were conducted with the named aptamers (SEQ ID NOs 348, 377, 379 and 388) instead of antibodies in each case and absorbances were red at 405 nm with an automated microplate reader after a 15 minute development time in the presence of ABTS substrate as is standard in the diagnostics industry.

The target of series [5] is T3, Recombinant human growth hormone (r-hGH). The experiment in a line: ELONA; binds r-hGH better than natural hGH. The conditions noted are these: tags: >95% pure research grade; label: 5'-biotin. As for the experimental part: FIGS. 15A-15D show four examples of aptamers from the SEQ ID NOs 325-526 that bind recombinant human growth hormone (r-hGH; >95% pure research grade) better than the natural form of hGH or somatotropin in ELISA-like assays to help discriminate the artificial form of hGH in potential drug or doping tests for athletes, or to monitor serum levels of exogendus doses of r-hGH administered to children with growth deficits. The ELISA-like assays were conducted with the named aptamers (SEQ ID NOs 336, 338, 343 and 345) instead of antibodies in each case and absorbances were red at 405 nm with an automated microplate reader after a 15 minute development time in the presence of ABTS substrate as is standard in the diagnostics industry.
The source holds these as a separate data set.

The target in series [6] is T1, CTx peptide (C-telopeptide of human …). Briefly: FRET beacon; almost as good as 15-base version, slightly higher background. The conditions noted are these: label: 5'-TYE665, 3'-Iowa Black RQ. As to the method:
Cuvettes are gently mixed for 15 to 20 minutes at RT prior to reading their fluorescence in the homogeneous beacon or competitive-displacement FRET assay formats using a spectrofluorometer having gratings to vary the excitation wavelength and emission scanning ability or a stationary, handheld or otherwise portable fluorometer having a more restricted or fixed excitation and emission optical filter set with a range of wavelengths for excitation and emission.
FIGS. 3A-3F show how each of the aptamer beacons derived and defined from FIG. 2 behaved as a function of decreasing CTx peptide concentration (serial two-fold dilutions beginning with 100 micrograms per ml and ending with zero CTx peptide) in 1× binding buffer (1×BB; 0.5 M NaCl, 10 mM Tris-HCl, pH 7.5-7.6, 1 mM MgCl₂). In the figures “h” means hour or O'clock so that 2 h refers to the 2 O'clock loop from FIG. 2, while F means forward-primed and R means reverse-primed by reference to FIG. 2 as well. […] The CTx 2R-2h loop was optimal for FRET-based detection because it gives the greatest spread or separation for various two-fold serial dilutions of the 26-AA CTx peptide beginning at 100 μg/ml. The CTx 2F-10 h loop was also noteworthy, but could not discriminate many of the different CTx concentrations. […]

T3 sequence (P01241 27-217, one chain of several): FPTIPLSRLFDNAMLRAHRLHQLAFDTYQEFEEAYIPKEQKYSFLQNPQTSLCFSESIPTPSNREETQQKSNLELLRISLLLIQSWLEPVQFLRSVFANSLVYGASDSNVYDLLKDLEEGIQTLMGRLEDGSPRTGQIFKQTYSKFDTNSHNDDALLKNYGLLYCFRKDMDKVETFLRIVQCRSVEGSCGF
T1 sequence (P02452 1193-1218, one chain of several): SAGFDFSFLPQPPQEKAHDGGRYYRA
Sequence of Bovine serum albumin (BSA) (P02769 25-607, one chain of several): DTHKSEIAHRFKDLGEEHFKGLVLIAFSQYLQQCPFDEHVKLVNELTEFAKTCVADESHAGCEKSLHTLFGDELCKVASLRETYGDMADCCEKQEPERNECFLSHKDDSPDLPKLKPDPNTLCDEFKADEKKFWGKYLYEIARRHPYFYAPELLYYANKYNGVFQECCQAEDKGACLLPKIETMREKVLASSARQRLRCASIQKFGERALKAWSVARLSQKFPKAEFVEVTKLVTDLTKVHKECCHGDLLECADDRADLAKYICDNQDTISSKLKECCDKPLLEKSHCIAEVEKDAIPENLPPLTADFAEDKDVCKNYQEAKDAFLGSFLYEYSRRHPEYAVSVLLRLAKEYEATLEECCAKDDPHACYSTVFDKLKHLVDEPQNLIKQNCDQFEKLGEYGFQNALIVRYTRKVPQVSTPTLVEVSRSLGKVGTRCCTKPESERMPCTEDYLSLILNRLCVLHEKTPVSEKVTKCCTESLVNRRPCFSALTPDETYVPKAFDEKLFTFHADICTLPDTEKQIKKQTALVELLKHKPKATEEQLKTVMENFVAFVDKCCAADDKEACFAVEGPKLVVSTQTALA

Take GGTGGTGTTGGCTCC (ssDNA) [CTx 2R-2h 15-base beacon]: the binding result in series [1] is “binds”; in series [2], “binds”; in series [3] it was “no binding”.

B1: hGH aptamer SEQ 348 (ssDNA)
DNA: ATCCGTCACACCTGCTCTAGGATTTTTGTTATGTCGGCCACGATGGGGACCCCGTGGTGTTGGCTCCCGTAT
For the molecule B1, the binding result in series [4] is on record as “binds”.

B2: hGH aptamer SEQ 343 (ssDNA)
DNA: ATACGGGAGCCAACACCATAAGCAGAGAACTACAAGACGATCCCATATTCCAAAGAGCAGGTGTGACGGAT
As to B2, in series [5], the binding result is on record as “binds”.

B3: hGH aptamer SEQ 377 (ssDNA)
DNA: ATACGGGAGCCAACACCACATGACGGGTGACTAAAAGACGAAATCTCCCAATTAAGAGCAGGTGTGACGGAT
On to B3, for which, in series [4], the binding result was “binds”.

B4: hGH aptamer SEQ 345 (ssDNA)
DNA: ATACGGGAGCCAACACCAGGTTGGCGTCAAAAGAAATAAGGGATATACATTAGAGAGCAGGTGTGACGGAT
Regarding B4, in series [5], the binding result was “binds”.

B5: hGH aptamer SEQ 379 (ssDNA)
DNA: ATACGGGAGCCAACACCACCTGAGCGCCGGCAGCACTCACTATTTGTCCCCGCAAGAGCAGGTGTGACGGAT
Consider B5, for which the binding result in series [4] is “binds”.
For GTGGTGTTGGCTC (ssDNA) [CTx 2R-2h 13-base beacon], the binding result in series [6] was “binds”.

B6: hGH aptamer SEQ 338 (ssDNA)
DNA: ATCCGTCACACCTGCTCTTGGGTGAATCAATTGTTCGTACTCCACGTGATTCTGTGGTGTTGGCTCCCGTAT
As for B6, in series [5], the binding result was “binds”.

B7: hGH aptamer SEQ 388 (ssDNA)
DNA: ATCCGTCACACCTGCTCTAAAACATGGGCCCAATTAGGCGTGATCCAACCCGTCTGGTGTTGGCTCCCGTAT
For B7, the binding result in series [4] is listed as “binds”.

B8: hGH aptamer SEQ 336 (ssDNA)
DNA: ATCCGTCACACCTGCTCTGGGGTGTATCCTTTTATGGATCTGCGAGAATAAGTCTGGTGTTGGCTCCCGTAT
Take B8: the binding result in series [5] is given as “binds”.
